Laboratory results: US11512128B2, “VEGF/DLL4 binding agents and uses thereof” (MEREO BIOPHARMA 5, INC., priority 2011, dated 2022)

T1: mouse VEGF165 (Mus musculus, UniProt Q00731)
T1 sequence (Q00731 27-190 isoform Q00731-2): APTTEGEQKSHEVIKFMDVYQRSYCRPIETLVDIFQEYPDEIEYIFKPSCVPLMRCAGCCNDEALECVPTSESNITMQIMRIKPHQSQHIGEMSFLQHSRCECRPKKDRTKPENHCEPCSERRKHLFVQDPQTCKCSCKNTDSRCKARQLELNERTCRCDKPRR

T2: human VEGF165 (Homo sapiens, UniProt P15692)
T2 sequence (P15692 27-191 isoform P15692-4): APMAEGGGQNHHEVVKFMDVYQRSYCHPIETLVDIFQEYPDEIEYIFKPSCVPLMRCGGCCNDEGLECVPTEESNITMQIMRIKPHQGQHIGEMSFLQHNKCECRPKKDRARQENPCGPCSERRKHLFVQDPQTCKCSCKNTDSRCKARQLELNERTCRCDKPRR

B1: 219R45: monoclonal antibody that specifically binds human VEGF; parental anti-VEGF antibody (antibody)
heavy: QVQLVQSGAEVKKPGASVKVSCKASGYTFTNYWMHWVRQAPGQGLEWMGDINPSNGRTSYKEKFKRRVTLSVDKSSSTAYMELSSLRSEDTAVYFCTIHYDDKYYPLMDYWGQGTLVTVSSASTKGPSVFPLAPCSRSTSESTAALGCLVKDYFPEPVTVSWNSGALTSGVHTFPAVLQSSGLYSLSSVVTVPSSNFGTQTYTCNVDHKPSNTKVDKTVERKCCVECPPCPAPPVAGPSVFLFPPKPKDTLMISRTPEVTCVVVDVSHEDPEVQFNWYVDGVEVHNAKTKPREEQFNSTFRVVSVLTVVHQDWLNGKEYKCKVSNKGLPAPIEKTISKTKGQPREPQVYTLPPSREEMTKNQVSLTCLVKGFYPSDIAVEWESNGQPENNYKTTPPMLDSDGSFFLYSKLTVDKSRWQQGNVFSCSVMHEALHNHYTQKSLSLSPGK
light: DIVMTQSPDSLAVSLGERATISCRASESVDNYGISFMKWFQQKPGQPPKLLIYAASNQGSGVPDRFSGSGSGTDFTLTISSLQAEDVAVYYCQQSKEVPWTFGGGTKVEIKRTVAAPSVIFPPSDEQLKSGTASVVCLLNNFYPREAKVQWKVDNALQSGNSQESVTEQDSKDSTYSLSSTLTLSKADYEKHKVYACEVTHQGLSSPVTKSFNRGEC
B2: 21R79: monoclonal antibody that specifically binds human DLL4; parental anti-DLL4 antibody (antibody)
heavy: QVQLVQSGAEVKKPGASVKISCKASGYSFTAYYIHWVKQAPGQGLEWIGYIANYNRATNYNQKFKGRVTFTTDTSTSTAYMELRSLRSDDTAVYYCARDYDYDVGMDYWGQGTLVTVSSASTKGPSVFPLAPCSRSTSESTAALGCLVKDYFPEPVTVSWNSGALTSGVHTFPAVLQSSGLYSLSSVVTVPSSNFGTQTYTCNVDHKPSNTKVDKTVERKCCVECPPCPAPPVAGPSVFLFPPKPKDTLMISRTPEVTCVVVDVSHEDPEVQFNWYVDGVEVHNAKTKPREEQFNSTFRVVSVLTVVHQDWLNGKEYKCKVSNKGLPAPIEKTISKTKGQPREPQVYTLPPSREEMTKNQVSLTCLVKGFYPSDIAVEWESNGQPENNYKTTPPMLDSDGSFFLYSKLTVDKSRWQQGNVFSCSVMHEALHNHYTQKSLSLSPGK
light: B1 light

Legend:
mouse VEGF165 = target: T1, mouse VEGF165; test: Biacore binding affinity (KD) to mouse VEGF; conditions: Biacore 2000, biotinylated mouse VEGF165 on streptavidin chip; read-out: KD mVEGF
Experimental: (§1) The KDs of parental antibodies anti-VEGF 219R45 (IgG format), anti-DLL4 21R79 (IgG format), anti-DLL4 21M18 (IgG format) and bispecific antibodies 219R45-MB-21M18 and 219R45-MB-21R79 were determined using a Biacore 2000 system from Biacore LifeSciences (GE Healthcare). Recombinant human DLL4-Fc or mouse DLL4-Fc proteins were immobilized on CM5 carboxyl chips using standard amine-based chemistry (NHS/EDC) and blocked with ethanolamine. Recombinant human VEGF165 or mouse VEGF165 were biotinylated and immobilized on streptavidin chips. The antibodies were serially diluted 2-fold from 100 nM to 0.78 nM in HBS-P (0.01M HEPES pH7.4, 0.15M NaCl, 0.005% v/v Polysorbate 20). For each antibody, all 8 dilutions were sequentially injected over a specific chip. Kinetic data were collected over time and were fit using the simultaneous global fit equation to yield affinity constants (KD values) for each bispecific antibody.

human DLL4-Fc = human DLL4-Fc (Homo sapiens, UniProt Q9NR61); test: Biacore binding affinity (KD) to human DLL4; conditions: Biacore 2000, human DLL4-Fc on CM5 chip; read-out: KD hDLL4
Experimental: as §1
Several additional anti-DLL4 antibodies were identified that had binding affinities intermediate to the KDs of 21M18 and 21R79. Two of these anti-DLL4 antibodies were used to produce anti-VEGF/anti-DLL4 bispecific antibodies 219R45-MB-21R75 and 219R45-MB-21R83. Using the Biacore 2000 system as described above, the KDs of the bispecific antibodies 219R45-MB-21R75 and 219R45-MB-21R83 to human DLL4 were determined.

mouse DLL4-Fc = test: Biacore binding affinity (KD) to mouse DLL4; conditions: Biacore 2000, mouse DLL4-Fc on CM5 chip; read-out: KD mDLL4
Experimental: as §1

[1] = system: VEGF-induced proliferation of HUVEC cells; test: HUVEC proliferation assay; type: cell-based, human; conditions: hVEGF 5 ng/ml, Alamar Blue on day 7
Experimental: FIG. 3. Inhibition of VEGF-induced HUVEC proliferation by anti-VEGF/anti-DLL4 bispecific antibodies. Fluorescence intensity is read using an excitation wavelength of 530 nm and an emission wavelength of 590. 219R45-MB-21M18 (-●-); 219R45-MB-21R79 (-▴-); 219R45 (-▪-); Medium with no VEGF (-⋄-).
HUVEC cells were obtained from Lonza (Walkersville, Md.) and cultured in growth media (M199, 10% heat-inactivated FBS (HI-FBS), 50 μg/ml EGS, 1X heparin, 1 mM L-glutamine). For the HUVEC proliferation assay, a 96-well plate was pre-coated with 50 μl of 10 μg/ml rat tail collagen type I solution (collagen I in 0.02N acetic acid) and incubated at 4° C. overnight. After incubation, the plate was thoroughly aspirated to remove unbound collagen I solution and washed once with 200 μl DPBS. The HUVEC cells were removed from the surface of the growth flasks using an endothelial cell subclone reagent and centrifuged at 1200 rpm for 5 minutes at 4° C. The cells were resuspended in starvation/assay medium (M199 and 2% HI-FBS, 1× heparin, 5 U/ml heparin-glutamine) at a density of 10^5 cells/ml. The cells were seeded into the collagen-coated assay plate at 5000 cells/well, 50 ul/well. The cells were incubated for 3 hours at 37° C., washed one time, refed with 100 ul assay media, and incubated overnight at 37° C. The next day, bispecific antibodies 219R45-MB-21M18, 219R45-MB-21R79, parental antibody 219R45, or control antibody LZ1 were prepared in a mixture with human VEGF (R&D Biosystems, Minneapolis, Minn.). The antibodies were serially diluted 5-fold from […] to 0.25 nM in assay buffer in combination with hVEGF (final concentration 5 ng/ml). The mixture was pre-incubated at 37° C. for 2 hours. The medium was removed from the assay plate, and 100 μl of the antibody/hVEGF mixture was added to each well. […] The plate was read with a SpectraMax M5e Microplate reader (Molecular Devices, Sunnyvale CA) using a excitation wavelength of […] and an emission wavelength of 590 nm.

human VEGF165 = target: T2, human VEGF165; test: Biacore binding affinity (KD) to human VEGF; conditions: Biacore 2000, biotinylated human VEGF165 on streptavidin chip; read-out: KD hVEGF
Experimental: as §1

[2] = system: DLL4-induced Notch signaling; test: DLL4-induced Notch signaling luciferase reporter assay in Notch2-expressing PC3 cells; type: cell-based; conditions: coated human DLL4 100 ng/well, antibody 20 to 0.064 ug/ml
Experimental: FIG. 4. Inhibition of DLL4-induced Notch signaling by anti-VEGF/anti-DLL4 bispecific antibodies. Luciferase activity was measured using a dual luciferase assay kit with firefly luciferase activity normalized to Renilla luciferase activity. 219R45-MB-21M18 (-●-); 219R45-MB-21R79 (-▪-); 21M18 (-∘-); 21R79 (-□-).
Human PC3 cells were transfected with an expression vector encoding a full-length human Notch2 receptor and a firefly luciferase reporter vector (8× CBF-luciferase reporter) that is responsive to Notch signaling. The cells were also transfected with a Renilla luciferase reporter (Promega, Madison, Wis.) as an internal control for transfection efficiency. Purified human DLL4 protein was coated onto 96-well plates at 100 ng/well and Notch2-expressing PC3-luc cells were added to the wells. Anti-VEGF/anti-DLL4 bispecific antibodies 219R45-MB-21M18, 219R45-MB-21R79, parental anti-DLL4 antibodies 21M18, 21R79 or a control antibody LZ1 were serially diluted 5-fold from 20 ug/ml to 0.064 ug/ml, added to the appropriate wells, and incubated overnight. Luciferase activity was determined using a dual luciferase assay kit (Promega, Madison, Wis.) with firefly luciferase activity normalized to Renilla luciferase activity.

Chain of mouse DLL4-Fc (Q9JI71 27-519 limits assumed): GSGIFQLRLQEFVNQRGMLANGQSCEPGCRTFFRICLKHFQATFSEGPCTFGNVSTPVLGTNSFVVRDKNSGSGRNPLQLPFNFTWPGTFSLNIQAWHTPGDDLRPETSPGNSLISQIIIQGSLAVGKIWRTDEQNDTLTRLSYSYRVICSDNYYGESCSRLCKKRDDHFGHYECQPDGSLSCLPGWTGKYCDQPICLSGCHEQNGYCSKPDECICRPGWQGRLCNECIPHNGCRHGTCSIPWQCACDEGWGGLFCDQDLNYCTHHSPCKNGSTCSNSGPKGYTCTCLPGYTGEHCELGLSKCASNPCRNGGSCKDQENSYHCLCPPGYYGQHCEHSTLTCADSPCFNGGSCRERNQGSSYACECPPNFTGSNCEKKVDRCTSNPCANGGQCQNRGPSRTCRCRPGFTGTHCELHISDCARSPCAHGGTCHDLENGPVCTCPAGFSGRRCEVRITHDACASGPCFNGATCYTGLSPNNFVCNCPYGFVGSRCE
Chain of human DLL4-Fc (Q9NR61 27-522 limits assumed): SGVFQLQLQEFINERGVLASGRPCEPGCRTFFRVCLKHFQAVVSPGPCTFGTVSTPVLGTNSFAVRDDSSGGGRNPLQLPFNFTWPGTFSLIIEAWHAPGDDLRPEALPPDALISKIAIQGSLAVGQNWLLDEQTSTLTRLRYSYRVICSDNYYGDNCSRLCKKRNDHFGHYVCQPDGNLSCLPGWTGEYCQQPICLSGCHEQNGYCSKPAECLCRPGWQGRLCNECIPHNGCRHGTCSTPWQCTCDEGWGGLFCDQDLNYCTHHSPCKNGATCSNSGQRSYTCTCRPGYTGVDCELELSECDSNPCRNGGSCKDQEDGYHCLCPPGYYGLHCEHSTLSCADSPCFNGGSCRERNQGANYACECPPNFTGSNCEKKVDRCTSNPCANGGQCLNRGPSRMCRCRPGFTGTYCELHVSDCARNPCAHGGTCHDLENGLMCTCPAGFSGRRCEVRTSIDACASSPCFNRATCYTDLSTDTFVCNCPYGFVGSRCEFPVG

Row | Molecule | Kd (mouse VEGF165) | Kd (human DLL4-Fc) | Kd (mouse DLL4-Fc) | inhibition of VEGF-induced HUVEC proliferation [1] | Kd (human VEGF165) | inhibition of DLL4-induced Notch signaling [2]
1 | B1 | ~23 nM | > 100 nM | > 100 nM | inhibited HUVEC proliferation | – | –
2 | B2 | > 100 nM | – | > 100 nM | – | > 100 nM | inhibited DLL4-induced Notch signaling
